From paper doi:10.1101/620385

What was measured:
[1] = molecular target: unmodified nucleosome core particle (human | Xenopus laevis); experiment: SPR
[2] = molecular target: nucleosome core particle with histone H3 phosphorylated at Thr3 (human | Xenopus laevis) (UniProt P84233); experiment: SPR

fold reduction in binding affinity against CPC LM [1] | fold reduction in binding affinity against CPC LM [2] | Substance | Kd [1] | Kd [2]
3 fold | 3 fold | CPC localisation module containing Borealin 10-end (from UniProt Q53HL2;O15392;Q9NQS7) (complex) | – | –
– | – | CPC localisation module (Borealin-Survivin-INCENP 1-58) (from UniProt Q53HL2;O15392;Q9NQS7) (complex) | 295 nM | 103 nM
